Measurements taken from patent US9907791B2, “Ron inhibitors for use in preventing and treating bone loss” (UNIVERSITY OF UTAH RESEARCH FOUNDATION, priority 2014, dated 2018).

Experiments:
[1] = system: PyMT-MSP tumor cells; assay: Intratibial PyMT-MSP tumor-induced osteolysis; assay type: in vivo, mice
Source text: All procedures involving mice and experimental protocols were approved by the Institutional Animal Care and Use Committee (IACUC) of the University of Utah. The RonTK−/− mice which reside on the FVB background, were crossed with NOD.SCID mice for an immune-compromised mouse model. As a control, wild-type FVB mice were also crossed with NOD.SCID mice. The STK−/− mice, which are on a C57BL/6 background, were compared to wild-type C57BL/6 mice as controls. Mice for all experiments were 6 to 8 weeks of age. For intratibial injections, 1×10^5 (PyMTor DU4475) or 3×10^5 (MDA-MB-231) tumor cells were resuspended in 10 μL matrigel and injected into the right tibia of anesthetized female FVB (PyMT) or NOD.SCID mice carrying various alleles of RON. Osteolysis was assessed by X-ray radiography. Dissected hindlimbs from mice sacrificed at the final time point in each experiment were placed in the Kodak In-vivo Multispectral Imaging System FX and exposed to X-ray radiography at 35 kV for 100 sec. Excess tumor tissue was removed from the bones prior to X-ray. Osteolytic lesions were quantified using Image J software (NCBI). All images were compared to the contralateral leg as an internal control.
Hindlimb bones were excised from mice at the time of sacrifice and bones were fixed in 10% neutral-buffered formalin, decalcified in Formical-2000 (Decal Corporation, Tallman, N.Y.) for 8 days and embedded in paraffin for hematoxylin and eosin (H & E) or immunohistochemical staining. Osteoclast number was assessed as TRAP^+ multinucleated cells containing 4 or more nuclei and reported as TRAP^+ cells per field. Three sections per mouse and 5 fields per section were used for quantification with fields representing the entire length of the tibia. Tumor proliferation rate was reported as the number of cells which were positive for phospho-H3 staining compared to the number of unstained cells per field expressed as a percent. Three sections per mouse and 5 fields per section were used for quantification with analysis being restricted to within the bone marrow cavity. […]

[2] = system: bone marrow osteoclasts; assay: Osteoclast resorption assay; assay type: cell-based, mice; conditions: WT osteoclasts, inhibitors 10 μM or muRANK-Fc 10 μg/mL daily day 9 to 12
Protocol: Bone marrow osteoclasts were generated from 6 to 8 week old WT and RonTK−/− mice. Briefly, bone marrow was isolated from hindlimb bones and plated in α-MEM media containing 10% heat-inactivated fetal bovine serum (FBS, Sigma, St. Louis, Mo.), 100 units/mL penicillin-streptomycin (Hyclone), and 33 ng/mL human macrophage colony-stimulating factor (hM-CSF) (PeproTech, Rocky Hill, N.J.) for 24 hours. Non-adherent cells were collected and frozen for later use. To assess resorption activity, bone marrow precursor cells were thawed and seeded at a density of 1×10^5 cells per well in BioCoat Osteologic slides (BD Biosciences, San Jose, Calif.) in α-MEM media containing 10% FBS and antibiotics. After adhering overnight, media was removed and media containing 33 ng/mL hM-CSF and 9 ng/mL muRANKL (R & D systems, Minneapolis, Minn.) was added. The medium was changed every 3 days depending on acidification, and the assay was terminated as indicated. Recombinant human MSP was prepared and added daily as indicated. Cells were removed with 6% bleach and slides were viewed microscopically using phase-contrast with 20× magnification. Osteolytic resorption area within 5 representative fields was determined using Image J software, experiments were performed in triplicate. Recombinant MSP was prepared as follows (to be described in detail elsewhere): Concentrated, serum-free media from an MCF7 cell line engineered to overexpress MSP was cleaved with kallikrein (Invitrogen, Waltham, Mass.; 4 ng of kallikrein/1 μg of supernatant protein at 37° C. for 2.5 hours). The reaction was diluted to 20 mL with 10 mM sodium phosphate, pH 7.4 and loaded onto a 5 mL HiTrap heparin column (Millipore, Billerica, Mass.) equilibrated with 20 mL of 10 mM sodium phosphate, pH 7.4, at a rate of 1 mL/min. The column was washed with 10 mL of 10 mM sodium phosphate, pH 7.4, at a rate of 1 mL/min. […]

B1: muRANK-Fc: murine RANKL antagonist (Amgen) (protein)
chain: VTPPCTQERHYEHLGRCCSRCEPGKYLSSKCTPTSDSVCLPCGPDEYLDTWNEEDKCLLHKVCDAGKALVAVDPGNHTAPRRCACTAGYHWNSDCECCRRNTECAPGFGAQHPLQLNKDTVCTPCLLGFFSDVFSSTDKCKPWTNCTLLGKLEAHQGTTESDVVCSSSMTLRRPPKEAQAYLPS
modifications: left off: a dimerising Fc or GST
[1]; Ron TK−/− mice, treatment began 3 days post tumor cell injection
  MSP-driven osteolysis in Ron TK−/− mice: did not reduce this further
[1]; TRAP staining of bone sections
  TRAP+ osteoclasts in tumor-bearing bones: lack of TRAP+ cells
[1]; WT mice, treatment began 3 days post tumor cell injection
  osteolysis from PyMT-MSP tumors: significant osteolysis even in the presence of the RANKL antagonist
[2]
  MSP-induced increase in osteoclast resorption (resorption area): only slightly reduced
